{
  "source": "patent US20030105008A1",
  "about": "(BRIGHAM AND WOMEN S HOSPITAL, published 2003)",
  "binders": {"B1": {"name": "GSTORC5 (GST fused to human ORC5) (other, UniProt O43913 1-435, looked up)", "chain": "MPHLENVVLCRESQVSILQSLFGERHHFSFPSIFIYGHTASGKTYVTQTLLKTLELPHVFVNCVECFTLRLLLEQILNKLNHLSSSEDGCSTEITCETFNDFVRLFKQVTTAENLKDQTVYIVLDKAEYLRDMEANLLPGFLRLQELADRNVTVLFLSEIVWEKFRPNTGCFEPFVLYFPDYSIGNLQKILSHDHPPEYSADFYAAYINILLGVFYTVCRDLKELRHLAVLNFPKYCEPVVKGEASERDTRKLWRNIEPHLKKAMQTVYLREISSSQWEKLQKDDTDPGQLKGLSAHTHVELPYYSKFILIAAYLASYNPARTDKRFFLKHHGKIKKTNFLKKHEKTSNHLLGPKPFPLDRLLAILYSIVDSRVAPTANIFSQITSLVTLQLLTLVGHDDQLDGPKYKCTVSLDFIRAIARTVNFDIIKYLYDFL", "notes": "Baculovirus-expressed; not shown: GST tag of the pFB-GST vector"}, "B2": {"name": "ORC3N (ORC3N200), N-terminal 200 amino acids of human ORC3 (other)", "chain": "MATSSMSKGCFVFKPNSKKRKISLPIEDYFNKGKNEPEDSKLRFETYQLIWQQMKSENERLQEELNKNLFDNLIEFLQKSHSGFQKNSRDLGGQIKLREIPTAALVLGVNVTDHDLTFGSLTEALQNNVTPYVVSLQAKDCPDMKHFLQKLISQLMDCCVDIKSKEEESVHVTQRKTHYSMDSLSSWYMTVTQKTDPKML", "notes": "also called construct 3"}, "B3": {"name": "GSTORC4 (GST fused to human ORC4) (other, UniProt O43929 1-436, looked up)", "chain": "MSSRKSKSNSLIHTECLSQVQRILRERFCRQSPHSNLFGVQVQYKHLSELLKRTALHGESNSVLIIGPRGSGKTMLINHALKELMEIEEVSENVLQVHLNGLLQINDKIALKEITRQLNLENVVGDKVFGSFAENLSFLLEALKKGDRTSSCPVIFILDEFDLFAHHKNQTLLYNLFDISQSAQTPIAVIGLTCRLDILELLEKRVKSRFSHRQIHLMNSFGFPQYVKIFKEQLSLPAEFPDKVFAEKWNENVQYLSEDRSVQEVLQKHFNISKNLRSLHMLLMLALNRVTASHPFMTAVDLMEASQLCSMDSKANIVHGLSVLEICLIIAMKHLNDIYEEEPFNFQMVYNEFQKFVQRKAHSVYNFEKPVVMKAFEHLQQLELIKPMERTSGNSQREYQLMKLLLDNTQIMNALQKYPNCPTDVRQWATSSLSWL", "notes": "as for B1"}, "B4": {"name": "human ORC6, untagged (other, UniProt Q9Y5N6 1-252, looked up)", "chain": "MGSELIGRLAPRLGLAEPDMLRKAEEYLRLSRVKCVGLSARTTETSSAVMCLDLAASWMKCPLDRAYLIKLSGLNKETYQSCLKSFECLLGLNSNIGIRDLAVQFSCIEAVNMASKILKSYESSLPQTQQVDLDLSRPLFTSAALLSACKILKLKVDKNKMVATSGVKKAIFDRLCKQLEKIGQQVDREPGDVATPPRKRKKIVVEAPAKEMEKVEEMPHKPQKDEDLTQDYEEWKRKILENAASAQKATAE"}},
  "key": {"ORC2+3 core complex [1]": {"biological_target": "T1, ORC2+3 core complex (human, UniProt Q13416 1-577; Q9UBD5 1-711)", "T1 construct": "Untagged ORC2 and ORC3 co-expressed in Sf9 cells with a GST-tagged third subunit; also called ORC2+3 subcomplex; ORC2-3 complex", "T1 sequence (looked up) 1": "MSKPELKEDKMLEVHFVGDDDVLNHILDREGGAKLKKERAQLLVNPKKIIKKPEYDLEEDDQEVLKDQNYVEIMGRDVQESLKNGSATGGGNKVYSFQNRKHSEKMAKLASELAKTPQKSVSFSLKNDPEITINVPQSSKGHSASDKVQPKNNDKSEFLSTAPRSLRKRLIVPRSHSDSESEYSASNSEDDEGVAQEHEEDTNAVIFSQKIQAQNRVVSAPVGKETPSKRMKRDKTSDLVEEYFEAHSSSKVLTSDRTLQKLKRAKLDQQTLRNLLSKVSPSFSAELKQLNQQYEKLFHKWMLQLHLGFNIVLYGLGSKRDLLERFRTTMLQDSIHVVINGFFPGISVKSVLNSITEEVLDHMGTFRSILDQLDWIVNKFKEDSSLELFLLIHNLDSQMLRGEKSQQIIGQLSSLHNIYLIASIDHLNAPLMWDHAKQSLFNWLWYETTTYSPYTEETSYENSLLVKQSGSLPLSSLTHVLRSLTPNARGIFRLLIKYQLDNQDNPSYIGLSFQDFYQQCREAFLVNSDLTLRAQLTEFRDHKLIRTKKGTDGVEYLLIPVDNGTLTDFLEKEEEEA", "T1 sequence (looked up) 2": "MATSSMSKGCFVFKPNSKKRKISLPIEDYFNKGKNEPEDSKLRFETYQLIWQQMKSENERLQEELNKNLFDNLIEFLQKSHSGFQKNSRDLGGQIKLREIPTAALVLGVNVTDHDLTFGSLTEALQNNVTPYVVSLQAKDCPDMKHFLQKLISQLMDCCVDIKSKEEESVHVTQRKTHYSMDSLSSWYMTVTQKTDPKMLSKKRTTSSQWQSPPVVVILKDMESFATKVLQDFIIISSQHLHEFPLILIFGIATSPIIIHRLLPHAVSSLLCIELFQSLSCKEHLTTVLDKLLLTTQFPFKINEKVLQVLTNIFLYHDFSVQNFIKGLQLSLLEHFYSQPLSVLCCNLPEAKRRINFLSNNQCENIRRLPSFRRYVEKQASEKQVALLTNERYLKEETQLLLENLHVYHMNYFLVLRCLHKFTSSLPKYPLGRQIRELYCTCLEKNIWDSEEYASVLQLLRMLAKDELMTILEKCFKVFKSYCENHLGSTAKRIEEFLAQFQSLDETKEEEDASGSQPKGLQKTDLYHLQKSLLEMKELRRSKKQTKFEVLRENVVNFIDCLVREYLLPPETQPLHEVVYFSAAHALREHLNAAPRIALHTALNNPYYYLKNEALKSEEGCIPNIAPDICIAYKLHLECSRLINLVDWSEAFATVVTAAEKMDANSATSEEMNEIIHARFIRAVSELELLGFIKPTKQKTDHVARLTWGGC", "assay": "co-expression of GSTORC5, ORC2 and ORC3 in Sf9 cells, glutathione beads, immunoblot", "procedure": "(§1) Cells were harvested 48 hours post-infection. The cell pellet was washed once in cold phosphate buffered saline (PBS), and subsequently resuspended in hypotonic lysis buffer (10 mM Tris.Cl, pH 7.9; 10 mM KCl; 1.5 mM MgCl₂; 1 mM Phenylmethylsulfonyl Fluoride (PMSF); 2 μg/ml pepstatin; 2 μg/ml leupeptin; 5 μg/ml aprotinin; 1 mM DTT). The cell suspension was homogenized in a Dounce homogenizer using a B-type pestle followed by centrifugation at 3000 rpm for 7 min. The pellet containing the nuclei was lysed in buffer H/0.15 (50 mM HEPES.KOH, pH 7.5; 150 mM KCl; 0.02% NP-40; 5 mM Magnesium acetate; 1 mM EDTA; 1 mM EGTA; 10% glycerol, 1 mM PMSF, 2 μg/ml pepstatin, 2 μg/ml leupeptin, 5 μg/ml aprotinin, 1 mM DTT). The resulting suspension was subjected to ammonium sulfate precipitation (starting with 10% followed by 30% and finally 50%). The pellet following 50% ammonium sulfate cut was resuspended in buffer H/0.0 (no salt) and then dialyzed overnight against buffer H/0.15. […] Proteins were eluted using reduced glutathione elution buffer (50 Mm Tris.Cl, pH 8.0; 20 mM reduced glutathione; 0.01% NP-40; 100 mM NaCl). Gel filtration of glutathione eluate using fast protein liquid chromatography Superose 12 (Amersham Pharmacia Biotech Inc, Piscataway, N.J.) column was performed as described previously (Dhar, S. K. & Dutta, A. J Biol Chem 275:34983-8, 2000)."}, "[2]": {"biological_target": "T2, ORC2, ORC3 and ORC4 co-expressed with GSTORC5 (human, UniProt Q13416 1-577; Q9UBD5 1-711; O43929 1-436)", "T2 construct": "The set of untagged subunits that come down with GSTORC5; written as one partner because the pairwise tests of GSTORC5 with each of them were negative; also called ORC2, 3 and 4", "assay": "GST pull-down on glutathione beads from Sf9 cells expressing human ORC1-6 with ORC5 GST tagged; immunoblot", "procedure": "as §1, with “The” for “Cells were harvested 48 hours post-infection. The cell pellet was washed once in cold phosphate buffered saline (PBS), and subsequently resuspended in hypotonic lysis buffer (10 mM Tris.Cl, pH 7.9; 10 mM KCl; 1.5 mM MgCl₂; 1 mM Phenylmethylsulfonyl Fluoride (PMSF); 2 μg/ml pepstatin; 2 μg/ml leupeptin; 5 μg/ml aprotinin; 1 mM DTT). The”\n(§2) To purify recombinant six protein human origin recognition complex, Sf9 insect cells were infected with baculoviruses expressing human ORC1-6 subunits."}, "[3]": {"biological_target": "T3, GSTORC2 (GST fused to full-length human ORC2) (human, UniProt Q13416 1-577)", "T3 construct": "domain: full-length; also called GSTO2; not shown: GST tag of pFB-GST (baculovirus) or pGEX-5X-3 (bacterial)", "T3 sequence (looked up)": "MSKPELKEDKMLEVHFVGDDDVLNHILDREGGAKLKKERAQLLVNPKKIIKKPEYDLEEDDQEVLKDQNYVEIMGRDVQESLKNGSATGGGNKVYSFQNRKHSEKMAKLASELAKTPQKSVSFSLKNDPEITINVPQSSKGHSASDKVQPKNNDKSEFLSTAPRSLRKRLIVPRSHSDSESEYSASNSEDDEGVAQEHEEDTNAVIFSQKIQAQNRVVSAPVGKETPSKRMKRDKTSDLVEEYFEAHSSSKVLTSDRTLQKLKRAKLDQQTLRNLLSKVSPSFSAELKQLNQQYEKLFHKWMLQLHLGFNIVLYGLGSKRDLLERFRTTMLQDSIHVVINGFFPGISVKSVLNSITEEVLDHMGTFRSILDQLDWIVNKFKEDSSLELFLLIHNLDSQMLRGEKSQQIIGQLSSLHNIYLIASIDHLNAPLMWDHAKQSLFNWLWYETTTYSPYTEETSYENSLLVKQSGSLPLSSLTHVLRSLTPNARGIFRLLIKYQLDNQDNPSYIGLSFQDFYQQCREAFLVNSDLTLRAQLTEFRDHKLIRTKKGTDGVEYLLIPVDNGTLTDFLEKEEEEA", "assay": "GST pull-down of 35S-labelled in vitro translated ORC3N on bacterially expressed GSTORC2", "source_text": "(§3) Pull-down assays on glutathione agarose beads were done as described in (Lin, Y. L., et al., J Biol Chem 271:17190-8, 1996)."}, "[4]": {"biological_target": "B1", "assay": "glutathione beads from Sf9 cells co-expressing GSTORC5, ORC2, ORC4 and ORC3N; western blot", "procedure": "as §1, with “The” for “Cells were harvested 48 hours post-infection. The cell pellet was washed once in cold phosphate buffered saline (PBS), and subsequently resuspended in hypotonic lysis buffer (10 mM Tris.Cl, pH 7.9; 10 mM KCl; 1.5 mM MgCl₂; 1 mM Phenylmethylsulfonyl Fluoride (PMSF); 2 μg/ml pepstatin; 2 μg/ml leupeptin; 5 μg/ml aprotinin; 1 mM DTT). The”"}, "[5]": {"biological_target": "T4, GST (glutathione S transferase), control protein (UniProt P08515 1-218 = GST)", "T4 construct": "Negative control in the pull-downs; also called control GST", "T4 sequence (P08515 whole entry)": "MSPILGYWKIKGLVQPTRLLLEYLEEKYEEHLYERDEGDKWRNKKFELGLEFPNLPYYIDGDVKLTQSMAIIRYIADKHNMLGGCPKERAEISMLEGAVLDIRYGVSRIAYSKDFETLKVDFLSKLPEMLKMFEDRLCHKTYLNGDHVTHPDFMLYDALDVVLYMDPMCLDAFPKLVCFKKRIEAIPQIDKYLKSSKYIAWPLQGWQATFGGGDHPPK", "assay": "GST pull-down of 35S-labelled in vitro translated ORC3N (control of the GSTORC2C experiment)", "source_text": "as §3"}, "ORC2+3 core complex [6]": {"biological_target": "T1, ORC2+3 core complex", "assay": "co-expression of GSTORC4, ORC2 and ORC3 in Sf9 cells, glutathione beads, immunoblot", "procedure": "as §1"}, "[7]": {"biological_target": "T5, complex of GSTORC5, ORC2, ORC3 and ORC4 (human, UniProt O43913 1-435; Q13416 1-577; Q9UBD5 1-711; O43929 1-436)", "T5 construct": "Complex purified on glutathione beads from Sf9 cells; also called GSTORC5, 2, 3 and 4; ORC2, 3, 4 and 5 core complex; not shown: GST tag of the pFB-GST vector", "assay": "GST pull-down on glutathione beads from Sf9 cells expressing human ORC1-6 with ORC5 GST tagged; immunoblot", "procedure": "as §1, with “The” for “Cells were harvested 48 hours post-infection. The cell pellet was washed once in cold phosphate buffered saline (PBS), and subsequently resuspended in hypotonic lysis buffer (10 mM Tris.Cl, pH 7.9; 10 mM KCl; 1.5 mM MgCl₂; 1 mM Phenylmethylsulfonyl Fluoride (PMSF); 2 μg/ml pepstatin; 2 μg/ml leupeptin; 5 μg/ml aprotinin; 1 mM DTT). The”\nas §2"}},
  "data": [
    {"binder": "B1", "values": [
      {"measurement": "binding result", "setting": "ORC2+3 core complex [1]", "value": "binds"},
      {"measurement": "binding result", "setting": "[2]", "value": "binds"}
    ]},
    {"binder": "B2", "values": [
      {"measurement": "binding result", "setting": "[3]", "value": "binds"},
      {"measurement": "binding result", "setting": "[4]", "value": "no binding"},
      {"measurement": "binding result", "setting": "[5]", "value": "no binding"}
    ]},
    {"binder": "B3", "values": [
      {"measurement": "binding result", "setting": "ORC2+3 core complex [6]", "value": "no binding"}
    ]},
    {"binder": "B4", "values": [
      {"measurement": "binding result", "setting": "[7]", "value": "no binding"}
    ]}
  ]
}
